From patent US20240400698A1, “ANTI-CHEMOKIN LIKE RECEPTOR 1 ANTIBODIES AND THEIR THERAPEUTIC APPLICATIONS” (OSE IMMUNOTHERAPEUTICS, priority 2018, published 2024)

Key:
Mice dendritic cells = experiment: Maturation and differentiation of mice bone marrow derived dendritic cells, activation markers and viability by FACS; format: cell-based
Procedure: FIG. 1. Effect of the anti-CMKLR1 variants 1G1, 2G1, 3G1 and 4G1 chimeric antibodies on the DCs maturation and differentiation. Mice dendritic cells were incubated during maturation phase (24 h or 48 h) followed by a differentiation phase with excipient or RvE1 or anti-CMKLR1 antibodies variants (mutations on positions 1 and 2 of SEQ ID No. 8, corresponding to the VH-CDR3: 1G1 (LL), 2G1 (LI), 3G1 (IL) or 4G1 (II) or isotype controls (hIgG1 or mIgG)). Cells were then stained for FACS analysis with cell marker antibodies: A. CD80-PE; B. CD86-FITC; C. CD103-PerCPCy5.5; D. I/Ab-APC. Mean of Fluorescence was determined in each condition. E and F represent the viability of the cells measured by FACS using LIVE/DEAD® kit from Life Technologies in each condition after 24 or 48 hours of maturation respectively.
FIG. 17. Study of the myeloid cell activation markers after CMKLR1 pathway activation. Dendritic cells incubated in excipient, RvE1, 2G1 or isotype control (hIgG1) were then stained for FACS analysis with marker antibodies: A. CD80-PE. B. CD86-FITC. C. CD103-PerCPCy5.5. D. CD40-PeCy7. E. I/Ab-APC. Mean of Fluorescence was determined in each condition.
Bone marrow cells were harvested and cultured in RPMI medium supplemented with 10% FBS, glutamine and antibiotics and the dendritic cell differentiation was induced by GM-CSF at 20 ng/ml for 7 days. Then, immature dendritic cells (iDC) were collected and cultured for 24 hours with LPS (100 ng/ml) to induce the maturation from iDC to mDC. Treatments were added during differentiation and maturation at 2 μg/ml.
Dendritic cells were resuspended in PBS-FBS-EDTA and incubated with live and dead (LIVE/DEAD® Fixable Dead Cell Stains Yellow-Life Technologies) for 30 minutes on ice. Staining of CD11c-BV711, CD11b-APCCy7, I/Ab-APC, CD103-PerCPCy5.5, CCR7-V450, CD40-PeCy7, CD80-PE, CD86-FITC (all provided by BD Pharmingen) were performed.

[1] = test system: mice, peritonitis induced by Zymosan A; experiment: Zymosan A peritonitis model (sepsis); format: in vivo; conditions: preventive injection, vs isotype control
Procedure: FIG. 7. […] Preventive injection of anti-CMKLR1 was performed before Zymosan A injection (1 mg per mouse in 1 mL): RvE1 (1 μg per mouse) (•), 2G1 antibody (10 μg per mouse) ( ) or isotype control antibody (x). A. PMN numbered during the first 50 hours after Zymosan A injection. B. Macrophages numbered during the first 50 hours after Zymosan A injection. C. Resolution index.
Common peritonitis is induced by intraperitoneal injection of Zymosan A® (1 mg per mouse in 1 mL). Preventive injection of anti-CMKLR1 was performed 5 minutes before Zymosan A injection: RvE1 (1 μg per mouse), 2G1 antibody (10 μg per mouse). Murine peritoneal polymorphonuclear neutrophil (PMN) and macrophages were collected at 2-4-8-16-24 and 48 h after Zymosan A injection and numbered by flow cytometry analysis to determinate the resolution index (Bannenberg et al., 2005).

CMKLR1 receptor = target: T1, CMKLR1 receptor (Homo sapiens, UniProt Q99788); experiment: Competition with Chemerin in cAMP production by CMKLR1 receptor, CHO-K1 CMKLR1 Gi cells; format: cell-based; conditions: FIG. 20A; antibody 1 μM to 1 nM, chemerin 2 nM
T1 construct: host or cells: CHO-K1
T1 sequence (Q99788 1-373): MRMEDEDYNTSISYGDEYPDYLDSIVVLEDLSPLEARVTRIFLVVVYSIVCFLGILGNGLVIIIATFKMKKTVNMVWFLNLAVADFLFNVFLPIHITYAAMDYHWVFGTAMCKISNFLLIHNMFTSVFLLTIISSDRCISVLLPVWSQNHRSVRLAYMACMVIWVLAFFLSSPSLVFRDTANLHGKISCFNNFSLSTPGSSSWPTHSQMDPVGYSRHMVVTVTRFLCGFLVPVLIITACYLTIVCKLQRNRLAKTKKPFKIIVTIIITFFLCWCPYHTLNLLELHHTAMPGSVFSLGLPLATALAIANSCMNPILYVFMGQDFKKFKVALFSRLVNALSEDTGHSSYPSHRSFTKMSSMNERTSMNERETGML
Procedure: The day before the experiment CHO-K1 CMKLR1 Gi cells (Discover'X ref 95-0080C2) were plated in pre-warmed cell reagent then plated in a 96-well plate at 100 μl/well of cells as (Discover'X ref 15-103) and incubated 24 hours at 37° C., in a 5% CO2 humidified incubator for 24 hours.
For the detection CAMP, antibody reagent and cAMP working detection solution was added to the plate for 1 hour at room temperature, then CAMP solution A was added, and cells incubated 3 hours at room temperature in the dark. Bioluminescence was read with a plate reader with 0.5 s integration.

B1: 2G1: chimeric anti-CMKLR1 antibody, murine variable regions (SEQ ID No: 10 and 17), human IgG1 constant regions; VH-CDR3 variant LI (antibody, V domains shown)
VH: METDTLLLWVLLLWVPGSTGDEVQLVASGGGLVQPGGSLKLSCAASGFTFSSYGMSWVRQTPDRRLELVATINRYGGSTYYPDSVKGRFTISRDNAKNTLYLQMSSLKSEDTAMYYCPRLIYYGNEGDSWGQGTTLTVSS
VL: METDTLLLWVLLLWVPGSTGDQIVLTQSPAIMSASPGEKVTMTCSASSSVSFMHWYQQKSGTSPKRWIYDTTKLTSGVPARFSGSGSGTFYSLTISSMEAEDAATYYCQQWNSKPPLTFGPGTKLELKR
modifications: human IgG1 constant regions
notes: VH-CDR3 variant LI
level of detection of DCs expressing CD103 and IAb (Mice dendritic cells; FIG. 1, FACS, compared with C7 antibody): lower than DCs cells treated with C7 antibody | DCs activation and/or maturation towards a pro-inflammatory pathway (Mice dendritic cells; FIG. 1, mice dendritic cells, maturation 24 h or 48 h): inhibit DCs activation and/or maturation in a stronger manner than other synthetized antibodies (3G1 and 4G1) | expression of CD80, CD86, CD103, CD40 and IAb (DC activation markers) (Mice dendritic cells; FIG. 17, FACS, compared to the excipient or isotype control): strong decrease | viability of cells (Mice dendritic cells; FIGS. 1E and 1F, LIVE/DEAD kit, after 24 or 48 hours of maturation, compared with other antibodies, C7 or Resolvin E1): enhanced | PMNs number ([1]; FIG. 7A): slightly less | macrophages number ([1]; FIG. 7B): slightly less | resolution index ([1]; FIG. 7C): better resolution index | reversal of Chemerin-induced inhibition of forskolin-dependent cAMP production (CMKLR1 receptor): could not revert this inhibition of production
